Measured values as given in patent US20210214414A1 (Pfizer, published 2021).

Experiments:
Rat SLIT3-N = biological target: T1, Rat SLIT3-N (rat, UniProt O88280 34-1119, limits assumed); experiment: HTRF competition: d2-labelled rat SLIT3-N binding to human ROBO2 on HEK293 cells; geometric mean, n=3
T1 construct: domain: SLIT3-N; d2-labelled in the HTRF assay
T1 sequence (looked up): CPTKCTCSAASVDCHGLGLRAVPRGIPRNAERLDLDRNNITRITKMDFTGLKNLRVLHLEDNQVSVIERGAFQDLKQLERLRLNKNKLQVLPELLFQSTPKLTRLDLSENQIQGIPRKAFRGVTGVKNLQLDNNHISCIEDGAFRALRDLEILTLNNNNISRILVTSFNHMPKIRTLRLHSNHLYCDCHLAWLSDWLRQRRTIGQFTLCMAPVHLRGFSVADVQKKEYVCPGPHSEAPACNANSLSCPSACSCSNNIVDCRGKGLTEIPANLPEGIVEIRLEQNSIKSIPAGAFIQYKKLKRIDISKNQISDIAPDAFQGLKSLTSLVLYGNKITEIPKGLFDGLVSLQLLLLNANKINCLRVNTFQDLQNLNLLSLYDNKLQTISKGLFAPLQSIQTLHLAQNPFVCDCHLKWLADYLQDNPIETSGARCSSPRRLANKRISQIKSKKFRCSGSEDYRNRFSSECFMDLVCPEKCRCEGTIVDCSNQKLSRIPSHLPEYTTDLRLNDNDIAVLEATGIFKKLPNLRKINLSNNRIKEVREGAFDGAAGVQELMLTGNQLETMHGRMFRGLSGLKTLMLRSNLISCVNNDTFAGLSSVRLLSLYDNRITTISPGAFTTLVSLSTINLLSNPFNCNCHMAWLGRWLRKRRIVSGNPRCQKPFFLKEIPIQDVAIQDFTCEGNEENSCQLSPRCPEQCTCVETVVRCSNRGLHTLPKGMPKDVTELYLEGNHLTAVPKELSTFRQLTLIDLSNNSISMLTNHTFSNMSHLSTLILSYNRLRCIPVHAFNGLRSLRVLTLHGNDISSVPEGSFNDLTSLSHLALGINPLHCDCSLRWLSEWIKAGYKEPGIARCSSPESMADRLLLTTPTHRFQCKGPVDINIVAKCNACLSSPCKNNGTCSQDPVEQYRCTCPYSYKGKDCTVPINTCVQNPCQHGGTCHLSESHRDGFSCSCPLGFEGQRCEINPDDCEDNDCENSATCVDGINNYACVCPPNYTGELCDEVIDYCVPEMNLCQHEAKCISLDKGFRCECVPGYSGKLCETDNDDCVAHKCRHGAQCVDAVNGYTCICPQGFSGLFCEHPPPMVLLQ
Method: (§1) After incubation, fluorescence at 665 nm and 620 nm was measured on an Envision multilabel plate reader. The HTRF Ratio was calculated as follows: fluorescence at 665 nm/fluorescence at 620 nm×10,000. […] The IC₅₀ for each SLITx-N was determined using an 11-point, 4-fold dilution series with a top concentration of 4000 nM.

Mouse SLIT2-N = biological target: T2, Mouse SLIT2-N (mouse, UniProt Q9R1B9 26-1113, limits assumed); experiment: HTRF competition: d2-labelled mouse SLIT2-N binding to human ROBO2 on HEK293 cells; geometric mean, n=3
T2 construct: domain: SLIT2-N; d2-labelled in the HTRF assay
T2 sequence (looked up): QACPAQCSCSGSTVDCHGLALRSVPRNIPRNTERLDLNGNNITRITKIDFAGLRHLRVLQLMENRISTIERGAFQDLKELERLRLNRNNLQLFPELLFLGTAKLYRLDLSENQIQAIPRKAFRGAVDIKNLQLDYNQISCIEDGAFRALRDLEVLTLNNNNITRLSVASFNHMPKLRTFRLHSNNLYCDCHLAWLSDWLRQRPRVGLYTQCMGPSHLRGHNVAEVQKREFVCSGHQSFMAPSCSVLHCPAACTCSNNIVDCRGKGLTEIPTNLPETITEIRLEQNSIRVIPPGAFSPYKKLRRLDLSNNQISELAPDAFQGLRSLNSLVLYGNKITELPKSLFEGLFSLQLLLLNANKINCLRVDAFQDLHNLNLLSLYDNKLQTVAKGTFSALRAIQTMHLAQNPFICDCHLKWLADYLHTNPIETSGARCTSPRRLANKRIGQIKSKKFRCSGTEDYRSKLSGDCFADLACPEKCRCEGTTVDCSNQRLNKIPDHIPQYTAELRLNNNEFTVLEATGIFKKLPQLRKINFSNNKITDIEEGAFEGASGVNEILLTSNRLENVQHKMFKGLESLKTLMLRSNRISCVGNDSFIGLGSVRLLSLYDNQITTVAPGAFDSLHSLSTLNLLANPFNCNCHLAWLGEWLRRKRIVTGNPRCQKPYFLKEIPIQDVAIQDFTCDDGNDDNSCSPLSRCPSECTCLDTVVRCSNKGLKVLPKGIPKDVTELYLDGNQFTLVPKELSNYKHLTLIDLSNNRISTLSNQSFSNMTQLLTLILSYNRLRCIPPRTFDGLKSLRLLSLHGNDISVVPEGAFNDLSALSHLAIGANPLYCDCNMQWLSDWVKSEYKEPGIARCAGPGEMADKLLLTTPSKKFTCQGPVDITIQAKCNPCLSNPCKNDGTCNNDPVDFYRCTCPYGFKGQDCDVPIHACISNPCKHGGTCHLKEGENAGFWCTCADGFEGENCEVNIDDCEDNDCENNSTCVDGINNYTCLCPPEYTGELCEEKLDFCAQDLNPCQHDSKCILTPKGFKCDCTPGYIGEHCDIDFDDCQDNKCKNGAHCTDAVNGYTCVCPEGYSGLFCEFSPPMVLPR
Method: as §1

B1: ROBO2-Fc 2.2 (Fc fusion)
chain: SRLRQEDFPPRIVEHPSDVIVSKGEPTTLNCKAEGRPTPTIEWYKDGERVETDKDDPRSHRMLLPSGSLFFLRIVHGRRSKPDEGSYVCVARNYLGEAVSRNASLEVALLRDDFRQNPTDVVVAAGEPAILECQPPRGHPEPTIYWKKDKVRIDDKEERISIRGGKLMISNTRKSDAGMYTCVGTNMVGERDSDPAELTVFERGGSGGSEPKSSDKTHTCPPCPAPEAAGAPSVFLFPPKPKDTLMISRTPEVTCVVVDVSHEDPEVKFNWYVDGVEVHNAKTKPREEQYNSTYRVVSVLTVLHQDWLNGKEYKCKVSNKALPAPIEKTISKAKGQPREPQVYTLPPSREEMTKNQVSLTCLVKGFYPSDIAVEWESNGQPENNYKTTPPVLDSDGSFFLYSKLTVDKSRWQQGNVFSCSVMHEALHNHYTQKSLSLSPG
notes: Labelled with Alexa Fluor 647 in the flow cytometry assay; also called ROBO-Fc 2.2; ROBO2-Fc 2.2-AF647
Question: With B1 as the binder, how does the IC50 (Rat SLIT3-N) read?
Answer: 3 nM

Question: And the IC50 (Mouse SLIT2-N)?
Answer: 5.4 nM
